From PMC4653696 (The Journal of Biological Chemistry, 2015)

B1: Cdc11(Δα0 E294C)-capped, otherwise Cys-less septin hetero-octamer (complex, S. cerevisiae)
chain 1: MRGITFTVMIVGQSGSGRSTFINTLFGQQVVDTSTTILLPTDTSTEIDLQLREETVELEDDEGVKIQLNIIDTPGFGDSLDNSPSFEIISDYIRHQYDEILLEESRVRRNPRFKDGRVHAALYLINPTGHGLKEIDVEFIRQLGSLVNIIPVISKSDSLTRDELKLNKKLIMEDIDRWNLPIYNFPFDEDEISDEDYETNMYLRTLLPFAIIGSNEVYEMGGDVGTIRGRKYPWGILDVEDSSISDFVILRNALLISHLHDLKNYTHEILYERYRTCALSGESVAAESIRPNLTKLNGSSSSSTTTRRNTNPFKQSNNINNDVLNPASDMHGQSTGENNETYMTREEQIRLEEERLKAFEERVQQELLLKRQELLQREKELREIEARLEKEAKIKQEE
chain 2: MSAATATAAPVPPPVGISNLPNQRYKIVNEEGGTFTVMLAGESGLGKTTFINTLFQTVLKRADGQQHRQEPIRKTVEIDITRALLEEKHFELRVNVIDTPGFGDNVNNNKAWQPLVDFIDDQHDSYMRQEQQPYRTKKFDLRVHAVLYFIRPTGHGLKPIDIETMKRLSTRANLIPVIAKADTLTAQELQQFKSRIRQVIEAQEIRIFTPPLDADSKEDAKSGSNPDSAAVEHARQLIEAMPFAIVGSEKKFDNGQGTQVVARKYPWGLVEIENDSHSDFRKLRALLLRTYLLDLISTTQEMHYETYRRLRLEGHENTGEGNEDFTLPAIAPARKLSHNPRYKEEENALKKYFTDQVKAEEQRFRQWEQNIVNERIRLNGDLEEIQGKVKKLEEQVKSLQVKKSHLK
chain 3: MSLKEEQVSIKQDPEQEERQHDQFNDVQIKQESQDHDGVDSQYTNGTQNDDSERFEAAESDVKVEPGLGMGITSSQSEKGQVLPDQPEIKFIRRQINGYVGFANLPKQWHRRSIKNGFSFNLLVVGPDGIGKTTLMKTLFNNDDIEANLVKDYEEELANDQEEEEGQGEGHENQSQEQRHKVKIKSYESVIEENGVKLNLNVIDTEGFGDFLNNDQKSWDPIIKEIDSRFDQYLDAENKINRHSINDKRIHAVLYFIEPTGHYLKPLDLKFMQSVYEKVNLIPVIAKSDILTDEEILSFKKTIMNQLIQSNIELFKPPIYSNDDAENSHLSERLFSSLPYAVIGSNDIVENYSGNQVRGRSYPWGVIEVDNDNHSDFNLLKNLLIKQFMEELKERTSKILYENYRSSKLAKLGIKQDNSVFKEFDPISKQQEEKTLHEAKLAKLEIEMKTVFQQKVSEKEKKLQKSETELFARHKEMKEKLTKQLKALEDKKKQLELSINSASPNVNHSPVPTKKKGFLR
chain 4: MDPLSSVQPASYVGFDTITNQIEHRLLKKGFQFNIMVVGQSGLGKSTLINTLFASHLIDSATGDDISALPVTKTTEMKISTHTLVEDRVRLNINVIDTPGFGDFIDNSKAWEPIVKYIKEQHSQYLRKELTAQRERFITDTRVHAILYFLQPNGKELSRLDVEALKRLTEIANVIPVIGKSDTLTLDERTEFRELIQNEFEKYNFKIYPYDSEELTDEELELNRSVRSIIPFAVVGSENEIEINGETFRGRKTRWSAINVEDINQSDFVYLREFLIRTHLQDLIETTSYIHYEGFRARQLIALKENANSRSSAHMSSNAIQR
modifications: Alexa Fluor 555 maleimide (donor) or Alexa Fluor 647 maleimide (acceptor) on C294 (E294C)
notes: Cdc12, S. cerevisiae mitotic septin, Cys-less variant; Cdc3, S. cerevisiae mitotic septin, Cys-less variant; Cdc10, S. cerevisiae mitotic septin, Cys-less variant; also called Cdc11 Δα0^AF555; Cdc11 Δα0^AF647; source: E. coli NiCo21 (DE3), subunits co-expressed, purified (IMAC, chitin-agarose flow-through, SEC), maleimide dye-labelled; not shown: His6, N-terminal, kept; copies: 2 + 2 + 2 + 2
B2: Bni5 (Bud neck-interacting protein 5), type II myosin-binding protein (natural protein, S. cerevisiae, UniProt P53890 1-448, looked up)
chain: MGLDQDKIKKRLSQIEIDINQMNQMIDENLQLVEPAEDEAVEDNVKDTGVVDAVKVAETALFSGNDGADSNPGDSAQVEEHKTAQVHIPTENEANKSTDDPSQLSVTQPFIAKEQITHTAIAIGDSYNSFVANSAGNEKAKDSCTENKEDGTVNIDQNRGEADVEIIENNDDEWEDEKSDVEEGRVDKGTEENSEIESFKSPMPQNNTLGGENKLDAELVLDKFSSANKDLDIQPQTIVVGGDNEYNHESSRLADQTPHDDNSENCPNRSGGSTPLDSQTKIFIPKKNSKEDGTNINHFNSDGDGQKKMANFETRRPTNPFRVISVSSNSNSRNGSRKSSLNKYDSPVSSPITSASELGSIAKLEKRHDYLSMKCIKLQKEIDYLNKMNAQGSLSMEDGKRLHRAVVKLQEYLDKKTKEKYEVGVLLSRHLRKQIDRGENGQFWIGTK
modifications: Alexa Fluor 647 maleimide on the native cysteines Cys-144, Cys-266 and Cys-375 (2.7 dye molecules per protein)
notes: Bni5, S. cerevisiae; the BNI5 ORF cloned behind His8 and a human rhinovirus 3C protease site in pH3c-LIC; also called Bni5^AF647; acceptor dye-labeled Bni5; source: E. coli NiCo21 (DE3), purified (IMAC, chitin-agarose, SEC), maleimide dye-labelled

Assays:
[1] = target: T1, Shs1(E344C)-capped, otherwise Cys-less septin hetero-octamer (Shs1-Cdc12-Cdc3-Cdc10-Cdc10-Cdc3-Cdc12-Shs1) (S. cerevisiae, UniProt Q07657 1-551; P32468 1-407; P32457 1-520; P25342 1-322, C29V | C148S | E344C | C40A | C278S | C124V | C253V | C279V | C266S, Alexa Fluor 555 maleimide (donor) or Alexa Fluor 647 maleimide (acceptor) on C344 (E344C)); test: FRET or BRET; 25 nM donor (AF555)-labelled octamers titrated with acceptor (AF647)-labelled octamers, serial dilutions from 100 nM; 45 mM KCl, 50 mM Tris-HCl pH 8.0; room temperature, 1 h equilibration; triplicate; PCA and curve fit; apparent Kd of end-to-end association of rods; details: both partners purified
T1 construct: Cdc12, S. cerevisiae mitotic septin, Cys-less variant; Cdc3, S. cerevisiae mitotic septin, Cys-less variant; Cdc10, S. cerevisiae mitotic septin, Cys-less variant; Donor- and acceptor-labelled preparations are written as this one molecule; also called Shs1^AF555; Shs1^AF647; source: E. coli NiCo21 (DE3), subunits co-expressed, purified (IMAC, chitin-agarose flow-through, SEC), maleimide …

[2] = target: T2, Shs1(Δ2–18/Δα0 E344C)-capped, otherwise Cys-less septin hetero-octamer (S. cerevisiae, UniProt Q07657 1-551; P32468 1-407; P32457 1-520; P25342 1-322, Δ2–18 | C29V | C148S | E344C | C40A | C278S | C124V | C253V | C279V | C266S, Alexa Fluor 555 maleimide (donor) on C344 (E344C)); test: as above; details: both partners purified
T2 construct: Cdc12, S. cerevisiae mitotic septin, Cys-less variant; Cdc3, S. cerevisiae mitotic septin, Cys-less variant; Cdc10, S. cerevisiae mitotic septin, Cys-less variant; also called Shs1 Δα0^AF555; Shs1(Δα0) complexes; source: E. coli NiCo21 (DE3), subunits co-expressed, purified (IMAC, chitin-agarose flow-through, SEC), maleimide dye-labelled; not shown: His6, N-terminal, kept; copies: 2 + 2 + 2 + 2
T2 sequence (Q07657 other isoform, or with tags, fused parts or gaps with the stated changes): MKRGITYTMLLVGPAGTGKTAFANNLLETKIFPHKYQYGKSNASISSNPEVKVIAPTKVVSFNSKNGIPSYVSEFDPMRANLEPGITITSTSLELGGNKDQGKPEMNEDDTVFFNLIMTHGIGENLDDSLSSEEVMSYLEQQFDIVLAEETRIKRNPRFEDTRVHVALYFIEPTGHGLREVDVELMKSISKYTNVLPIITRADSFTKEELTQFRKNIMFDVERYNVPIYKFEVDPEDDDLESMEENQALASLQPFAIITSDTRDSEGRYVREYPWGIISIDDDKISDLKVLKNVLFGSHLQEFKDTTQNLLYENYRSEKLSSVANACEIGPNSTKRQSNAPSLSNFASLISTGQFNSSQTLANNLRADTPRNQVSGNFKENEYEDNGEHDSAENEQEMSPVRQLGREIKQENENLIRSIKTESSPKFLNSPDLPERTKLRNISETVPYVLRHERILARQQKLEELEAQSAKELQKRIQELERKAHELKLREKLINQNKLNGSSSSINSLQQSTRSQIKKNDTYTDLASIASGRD

[3] = target: the molecule itself; test: as above
[4] = target: T3, Cdc11(E294C)-capped, otherwise Cys-less septin hetero-octamer (Cdc11-Cdc12-Cdc3-Cdc10-Cdc10-Cdc3-Cdc12-Cdc11) (S. cerevisiae, UniProt P32458 1-415; P32468 1-407; P32457 1-520; P25342 1-322, C43F | C137A | C138A | E294C | C40A | C278S | C124V | C253V | C279V | C266S, Alexa Fluor 555 maleimide (donor) or Alexa Fluor 647 maleimide (acceptor) on C294 (E294C); 0.7-0.8 dye molecules per subunit); test: as above; details: both partners purified
T3 construct: intact CTE (residues 303-415) restored; Cdc12, S. cerevisiae mitotic septin, Cys-less variant; Cdc3, S. cerevisiae mitotic septin, Cys-less variant; Cdc10, S. cerevisiae mitotic septin, Cys-less variant; The same preparation was labelled separately with donor (AF555) or acceptor (AF647); both are written as this one molecule; also called Cdc11^AF555; Cdc11^AF647; source: E. coli NiCo21 (DE3), …

[5] = target: T3, Cdc11(E294C)-capped, otherwise Cys-less …; test: FRET or BRET; 15 nM Cdc11^AF555 octamers assembled into filaments at low salt, titrated with Bni5^AF647 (maximum 500 nM); apparent Kd; details: both partners purified
[6] = target: T3, Cdc11(E294C)-capped, otherwise Cys-less …; test: FRET or BRET; 25 nM Cdc11^AF555 octamers assembled into filaments at low salt, titrated with Bni5^AF647 (maximum 500 nM); apparent Kd; details: both partners purified

Binder	Kd [1] [nM]	Kd [2] [nM]	Kd [3] [nM]	Kd [4] [nM]	Kd [5] [nM]	Kd [6] [nM]
B1	8.13	9.89	33.2	19.5		
B2					222	210
